Measured values published in the nanobody polyreactivity screen of Harvey et al. (2022).

Assay: yeast display, Sf9 membrane polyspecificity reagent, FACS + sequencing; frameworks hold sequencing errors
Method in brief: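 After 36–48 hours of galactose induction, yeast (Saccharomyces cerevisiae BJ5465) displaying a synthetic nanobody library were stained at 4 °C for 1 hour with 10% biotinylated, detergent-solubilized Sf9 membrane reagent. Streptavidin microbeads enriched the stained cells before FACS sorting into low and high (top ~1%) gates on anti-HA and streptavidin fluorescence. Each clone's polyreactivity label reflects its gate of origin.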

Row | Sequence | polyreactivity (PSR sort gate)
1 | QVQLVESGGGLVQAGGSLRLICAASGRTFWNYAMGWYRQAPGKERELVAVIRFSDGSTYYADSVKGRFTISRDNAKNTVYLQMNSLKPEDTAVYYCAAKGPRRWGSGFDYWGQGTQVTVSS | low polyreactivity
2 | QVQLVESGGGLVQAGGSLRLICAASGRTFYNAMGWYRQAPGKERELVAAISSAGRTYYADSVKGRFTISRDNAKNTVYLQMNSLKPEDTAVYYCAATAFSYYPYHGDYWGQGTQVTVSS | high polyreactivity
3 | QVQLVESGGGLVQAGGSLRLICAASGRTFYSYAMAWYRQAPGQERELVAAISSGGTTYYADSVKGRFTISRDNAKNTVYLQMNSLKPEDTAVYYCATSRAWRYRSYYWGQGTQVTVSS | high polyreactivity
4 | QVQLVESGGGLVQAGGSLRLICAASGRTIDHYAMGWYRQAPGKERELVAAISTTGGSTYYADSVKGRFTISRDNAKNTVYLQMNSLKPEDTAVYYCAARGLRTGGYWGQGTQVTVSS | high polyreactivity
5 | QVQLVESGGGLVQAGGSLRLICAASGRTNGVYVMGLYRQAPGKERELVAAIRKGVGSTYYADSVKGRFTISRDNAKNTVYLQMNSLKPEETAVYYCAADTRHYRYGYWGQGTQVTVSS | low polyreactivity
6 | QVQLVESGGGLVQAGGSLRLICAASGSIFADYAMGWYRQAPGKERELVAAITGSGGRTYYADSVKGRFTISRDNAKNTVYLQMNSLKPEDTAVYYCAAYQVVWDPYTRYDYWGQGTQVTVSS | low polyreactivity
7 | QVQLVESGGGLVQAGGSLRLICAASGSIFAYYAMGWYRQAPGKERELVGTNYADSVKGRFTISRDNAKNTVYLQMNSLKPEDTAVYYCAASSRRYLWGFDYWGQGTQVTVSS | low polyreactivity
8 | QVQLVESGGGLVQAGGSLRLICAASGSIFCTYAMGWYRQAPGKERELVAAITTSVGRTYYADSVKGRFTISRDNAKNTVYLHMNSLKPDDTAVYYCYAVRGGRYGLDYWGQGTHVTVSS | high polyreactivity
9 | QVQLVESGGGLVQAGGSLRLICAASGSIFDKYARGWYRQEPGKERELVAAIDSGDTYYADSVKGRFTISRDNAKNTVYLQMNSLKPEDTAVYYCAADDVQYEYDYWGQGTQVTVSS | low polyreactivity
10 | QVQLVESGGGLVQAGGSLRLICAASGSIFFSYAMGWYRQAPGKERELVAAIDYSGGGTYYADSVMGRFTISRDNAKNTVYLQMNSLKPEDTAVYYCNSDTEVWADTFISYRALNYWGQGTQVTVSS | low polyreactivity
11 | QVQLVESGGGLVQAGGSLRLICAASGSIFFTYVMGWYRQSPGKERELVAAISSDDNTNYADSVKGRFTSSRDNAKNTVYLQMHSLKPEDTAVYYCNADTTRYPYYDYGYYDYDYWGQGTQVTVSS | low polyreactivity
12 | QVQLVESGGGLVQAGGSLRLICAASGSIFLGYAMGWYRPAPGKERELVAAISTSGGGTYYADSVKGRFTISRDNAKNTVYLQMNSLKPEDTAVYYCNAVSHYKYDWGQGTQVTVSS | low polyreactivity
13 | QVQLVESGGGLVQAGGSLRLICAASGSIFRGYTMGWYRQAPGKERELVATISWSGGSTYYADSVKGRFTISRDNAKNTVYLQMNSLKPEDTAVYYCAAVWYLGIPYDYWGQGTQVTVSS | high polyreactivity
14 | QVQLVESGGGLVQAGGSLRLICAASGSIFRRYAMGWYRQAPGKERELVARITIRGGSTYYADSVKGRFTISRDNAKNTVYLQMNSLKPEDTAVYYCNTVVPASSGGAYRRYYYLGQGTQVTVSS | high polyreactivity
15 | QVQLVESGGGLVQAGGSLRLICAASGSIFSIYAMGWYRQAPGKERELVAAITWGGGSTYYADSVKGRFTISRDNAKNTVYLQINSLKPEDTAVYDCAAESLTWYGTYYYWGQGTQVTVSS | high polyreactivity
16 | QVQLVESGGGLVQAGGSLRLICAASGSIFSKYVMGWYREAPGKERDLVAAISWSGTRTYYADSVKGRFTISRDNAKNTVILQMNSMKAEDTAVYYCAARRLYAGHQYDYWGQGTIVTVSS | high polyreactivity
17 | QVQLVESGGGLVQAGGSLRLICAASGSIFTKYTMGWSRQAPGKERELVAAITLRGTSTYYADSVKGRFTISRDNAMNTVYLQMNSLIPEDTAFYYCNKLYSWVVAYDYWGQGTQVTVSS | high polyreactivity
18 | QVQLVESGGGLVQAGGSLRLICAASGSIFVNNGMGWYRQAPGKERELVAAIRLSTGSTYYADSVKGRFPISRDNAKNTVYLQMNSLKPEDTAVYYCATRYYIWGNWGQGTQVTVSS | high polyreactivity
19 | QVQLVESGGGLVQAGGSLRLICAASGSIFWGYAIGWFRPAPGKERELVAGITATGGSTYYADSVKGRFTISRDNAKNTVYLPMNSLKPEDTAVYYCAAEHGRLATYTWWVIYDYWGHGTQVTVSS | low polyreactivity
20 | QVQLVESGGGLVQAGGSLRLICAASGSIFYGNTMGWYRQARGKERELVAAISSGGSTYYADSVKGRFTISRDNAKNSVYLQMNSLKPEDTAVYYCAREDYSHSFLTYDYWGQGSQVTVSS | low polyreactivity
21 | QVQLVESGGGLVQAGGSLRLICAASGSIFYYNVMGWYRQAPGKEREWVAAIDIDGSTYYADSVNGRFTIARDNAKNTVYLQMNSLKPADTAVYYCNAQAPYWFSFYSDHKYDYWGLGTQVTVSS | low polyreactivity

Row | Sequence | polyreactivity (PSR sort gate)
22 | QVQLVESGGGLVQAGGSLRLICAASGSILGTYAMGWYRQAPGNDRELVAAISSSGRTSYADSVKGRFTISRDNAKNTVYLQMNSLKPEETAVYYCNASNYIFLINDPDAAPWLYDYWGQGSQVTVSS | low polyreactivity
23 | QVQLVESGGGLVQAGGSLRLICAASGSIVKNYAMGWYTQAPGKERELVAVISSGGSTNYADSVKGRFTISRDNAKYTVYLHMNSLIPEDTAVYSCAAERKSRGFWYDYWGQGTQVTVSS | high polyreactivity
24 | QVQLVESGGGLVQAGGSLRLICAASGSTFAGNTMGWYRQAPGKERELVATITSDGSTDYADSVKGRFTISRDNAKNTVYYQMNSLKAEDPAVYYCAKARGLSKMDSWGQGTQVTVSS | low polyreactivity
25 | QVQLVESGGGLVQAGGSLRLICAASGSTFARNAMGWYRQAPGKERELVAAITTRGSSTYYADSVKGRFTISRDNAKNTVYLQMNSLKPEDTAVYYCAADSRRSWYWGGYRQTGMGYWGQGTQLTVSS | high polyreactivity
26 | QVQLVESGGGLVQAGGSLRLICAASGSTFDANAMGWYRQAPGKERELVAAITSNGGSTYYADSVKARFTISRDNAKNTVYLQMNSLKPEDTAVYYCATEQHTVQDYDFWGQGTQVTVSS | low polyreactivity
27 | QVQLVESGGGLVQAGGSLRLICAASGSTFESYAMGWYRQAPGKERELVAAISRRGGRTYYADSVKGRFTISRDNAMNTVSLQMYSLKPEDTAVYYCATDSSYYGSDDYWGQGTQVTVSS | high polyreactivity
28 | QVQLVESGGGLVQAGGSLRLICAASGSTFGVNAMGWYRQAPGKERELVAVITRSGGSTYYADSVKGRFTISRDNAKNTVYLEMNSLKPEDTAVYYCAKSGVVDWGQGTQVTVSS | low polyreactivity
29 | QVQLVESGGGLVQAGGSLRLICAASGSTFGVYDMGWYRKAPGKERELVAAISWRGITYYADSVKGRFTISRDNAKNTVYLQMNSLNPEDTAVYFCASYEWLAYTSAWYGYWGKGTQVTVSS | high polyreactivity
30 | QVQLVESGGGLVQAGGSLRLICAASGSTFGYYTMGWYRQAPGKERELVAAISSGGSRTNYADSVKGRFTISRDNAKNTVYLQMNSLIPEDTAVYYCAAGPVSYVRYGSEYDYWGQGTQVTVSS | high polyreactivity
31 | QVQLVESGGGLVQAGGSLRLICAASGSTFKYNAMGWYRQAPGKERELVAAITYSGSSTYYADSVKGRFTISRDNAKNTVYLQMNSLKPEDTAVYYCAAGDLAKYRSYSYYYWGQGTQVTLSS | high polyreactivity
32 | QVQLVESGGGLVQAGGSLRLICAASGSTFLKYAMGWYRQAPGKERELVAAITYRGGTTYYADSVKGRFTISRDNAKNTVYLQMNSLKPEDTAVYYCAARGYKRMGYWGQGTQVTVSS | high polyreactivity
33 | QVQLVESGGGLVQAGGSLRLICAASGSTFNIYAMGWYRQAPGKERELVAAITSSGGSTYYAESVKGRFTISRDNGKNTVYLQMNSLKPEYTAVYYCNTDQYSPYEYSSFDSWGQGSQVTVSS | low polyreactivity
34 | QVQLVESGGGLVQAGGSLRLICAASGSTFRNYAMGWYRQAPGKEREFVAAITWSGGRTYYADSVKGRFTISRDNAKNTVYLQMNSLKPEDTAVYYCAARYRRGYDYWGQGTQVTVSS | high polyreactivity
35 | QVQLVESGGGLVQAGGSLRLICAASGSTFRYYAMVLYRQAPGKERELVAAISGTGSTYYADSVKGRFTISRDNAKNTVYLQMNSLKPEDTAVYYCAAYPRASQRYNYWGQGTQVTVSS | high polyreactivity
36 | QVQLVESGGGLVQAGGSLRLICAASGSTFTGYAMGWYRQAPGKERELVAAISISGGRTFYADSVKGRFTISRDNAKNTVYLQMNSLKPEDTAVYYCAAFLRGSKYSFDYWGQGTQVTVSS | high polyreactivity
37 | QVQLVESGGGLVQAGGSLRLICAASGSTFVLYAMGWYRQAPGKERELVAAITKRGGNTYYADSVKGRFTISRDNAKNTVYLQMNSLKPEDTAVYYCAADHVRSPFDSWGQGTQVTVSS | low polyreactivity
38 | QVQLVESGGGLVQAGGSLRLICAASGSTFVPYTMAWYRQAPGKERELVAAISGSGGTDYADSVKGRFTISRDNGKNTVYLQMNSLKPEDTAVYYCAAYSRVVPSFYYWGQGTQVTVSS | low polyreactivity
39 | QVQLVESGGGLVQAGGSLRLICAASGSTFVRNAMGWYRQSPGKEREFVAAIRRSGGSTYYADSVKGRFTISRDNPKNTVYLQINSLKPEDTAVYDCAARNYYTYDYWGQGTQVTVSS | high polyreactivity
40 | QVQLVESGGGLVQAGGSLRLICAASGSTFWSNAMGWYRQAPGKERELVATINSGDGTNYADSVKGRFTISRDNAKNTVYLQMNSLKPEDTAVYYCAAEKYYPWGWYTYDYWGQGTQVTVSS | high polyreactivity
41 | QVQLVESGGGLVQAGGSLRLICAASGSTFYEYAMGWYRQAPGKERELVAAISSNGARTYYADSVKVRFTISRDNAKNTVYLQMISLKPEDTAVYYCALVYRYAHTKYDYWGQGTQVTVSS | high polyreactivity
